According to patent US20180134765A1:

B1: Her2-specific antibody heavy chain fusion to ULBP2 α1-α2 variant R80W (antibody, part only; not given: Anti-HER2 heavy and light chains, not shown: another chain or arm of the molecule; small tags and cut ends)
chain: AAEPHSLSYDITVIPKFRPGPRWCAVQGQVDEKTFLHYDCGNKTVTPVSPLGKKLNVTTAWKAQNPVLREVVDILTEQLWDIQLENYTPKEPLTLQARMSCEQKAEGHSSGSWQFSFDGQIFLLFDSEKRMWTTVHPGARKMKEKWENDKVVAMSFHYFSMGDCIGWLEDFLMGMDSTLEPSAGAP
B2: Her2-specific antibody heavy chain fusion to ULBP3 α1-α2 variant R162G (antibody, part only; not given: Anti-HER2 heavy and light chains, not shown: another chain or arm of the molecule; small tags and cut ends)
chain: AAEPHSLWYNFTIIHLPRHGQQWCEVQSQVDQKNFLSYDCGSDKVLSMGHLEEQLYATDAWGKQLEMLREVGQRLRLELADTELEDFTPSGPLTLQVRMSCESEADGYIRGSWQFSFDGRKFLLFDSNNRKWTVVHAGARRMKEKWEKDSGLTTFFKMVSMGDCKSWLRDFLMHRKKRLEPTAP

Biological target: human NKG2D (Example 6 binding ELISA) (human) (UniProt P26718)
Sequence (P26718 78-216 limits assumed): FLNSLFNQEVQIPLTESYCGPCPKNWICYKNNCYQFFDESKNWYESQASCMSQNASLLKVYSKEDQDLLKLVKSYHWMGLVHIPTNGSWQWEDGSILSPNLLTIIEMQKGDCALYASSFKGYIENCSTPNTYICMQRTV
Test: binding ELISA of the HER2 antibody heavy chain fusion on human NKG2D

Row | Binder | EC50 (read off the curve) [pM]
1 | B1 | 1000 to 2000
2 | B2 | 400
